T1: p63γ (Homo sapiens, UniProt Q9H3D4)
T1 construct: expressed in transfected cells; host or cells: Saos-2
T1 sequence (Q9H3D4 1-487 isoform Q9H3D4-5): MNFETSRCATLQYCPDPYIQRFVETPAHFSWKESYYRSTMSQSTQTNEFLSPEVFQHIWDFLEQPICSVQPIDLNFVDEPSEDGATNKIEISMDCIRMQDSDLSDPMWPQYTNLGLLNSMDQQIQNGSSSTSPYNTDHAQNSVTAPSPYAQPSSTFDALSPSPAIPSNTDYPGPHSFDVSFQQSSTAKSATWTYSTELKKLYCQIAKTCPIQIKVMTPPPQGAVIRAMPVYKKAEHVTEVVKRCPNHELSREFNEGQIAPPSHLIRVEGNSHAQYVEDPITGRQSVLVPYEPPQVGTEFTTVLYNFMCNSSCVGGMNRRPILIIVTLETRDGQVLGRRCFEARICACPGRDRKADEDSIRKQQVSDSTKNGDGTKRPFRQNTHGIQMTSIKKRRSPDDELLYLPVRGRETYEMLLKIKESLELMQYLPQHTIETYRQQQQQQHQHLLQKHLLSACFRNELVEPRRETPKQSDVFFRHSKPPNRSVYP

T2: p73α (Homo sapiens, UniProt O15350)
T2 construct: expressed in transfected cells; host or cells: H1299 and Saos-2; part of the results from in vitro translation
T2 sequence (O15350 1-636): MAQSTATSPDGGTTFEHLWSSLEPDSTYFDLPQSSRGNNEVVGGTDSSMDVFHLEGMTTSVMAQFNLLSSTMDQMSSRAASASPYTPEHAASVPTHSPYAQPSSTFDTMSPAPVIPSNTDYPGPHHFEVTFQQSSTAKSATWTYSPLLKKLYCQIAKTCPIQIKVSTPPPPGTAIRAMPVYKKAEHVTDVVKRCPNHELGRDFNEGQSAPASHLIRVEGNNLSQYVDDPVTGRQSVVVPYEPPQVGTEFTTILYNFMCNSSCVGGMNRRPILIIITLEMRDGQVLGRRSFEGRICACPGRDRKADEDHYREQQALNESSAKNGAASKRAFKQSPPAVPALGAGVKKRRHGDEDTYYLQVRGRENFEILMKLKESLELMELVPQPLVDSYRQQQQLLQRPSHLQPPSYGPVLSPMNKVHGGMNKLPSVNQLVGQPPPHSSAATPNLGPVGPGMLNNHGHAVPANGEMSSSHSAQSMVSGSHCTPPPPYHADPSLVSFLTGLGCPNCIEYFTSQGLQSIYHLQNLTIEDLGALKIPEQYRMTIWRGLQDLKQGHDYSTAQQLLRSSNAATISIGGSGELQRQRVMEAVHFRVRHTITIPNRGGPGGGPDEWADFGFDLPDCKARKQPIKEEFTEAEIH

B1: ASPP1: Apoptosis Stimulating Protein 1, protein of SEQ ID NO: 2, expressed from a transfected plasmid (protein, listed as Homo sapiens)
chain: MMPMILTVFLSNNEQILTEVPITPETTCRDVVEFCKEPGEGSCHLAEVWRGNERPIPFDHMMYEHLQIWGPRREEVKFFLRHEDSPTENSEQGGRQTQEQRTQRNVINVPGDKRTEYGVGNPRVELTLSELQDMAARQQQQIENQQQMLVAKEQRLHFLKQQERRQQQSISENEKLQKLKERVEAQENKLKKIRAMRGQVDYSKIMNGNLSAEIERFSAMFQEKKQEVQTAILRVDQLSQQLEDLKKGKLNGFQSYNGKLTGPAAVELKRLYQELQIRNQLNQEQNSKLQQQKELLNKRNMEVAMMDKRISELRERLYGKKIQLNRVNGTSSPQSPLSTSGRVAAVGPYIQVPSAGSFPVLGDPIKPQSLSIASNAAHGRSKSANDGNWPTLKQNSSSSVKPVQVAGADWKDPSVEGSVKQGTVSSQPVPFSALGPTEKPGIEIGKVPPPIPGVGKQLPPSYGTYPSPTPLGPGSTSSLERRKEGSLPRPSAGLPSRQRPTLLPATGSTPQPGSSQQIQQRISVPPSPTYPPAGPPAFPAGDSKPELPLTVAIRPFLADKGSRPQSPRKGPQTVNSSSIYSMYLQQATPPKNYQPAAHSALNKSVKAVYGKPVLPSGSTSPSPLPFLHGSLSTGTPQPQPPSESTEKEPEQDGPAAPADGSTVESLPRPLSPTKLTPIVHSPLRYQSDADLEALRRKLANAPRPLKKRSSITEPEGPGGPNIQKLLYQRFNTLAGGMEGTPFYQPSPSQDFMGTLADVDNGNTNANGNLEELPPAQPTAPLPAEPAPSSDANDNELPSPEPEELICPQTTHQTAEPAEDNNNNVATVPTTEQIPSPVAEAPSPGEEQVPPAPLPPASHPPATSTNKRTNLKKPNSERTGHGLRVRFNPLALLLDASLEGEFDLVQRIIYEVEDPSKPNDEGITPLHNAVCAGHHHIVKFLLDFGVNVNAADSDGWTPLHCAASCNSVHLCKQLVESGAAIFASTISDIETAADKCEEMEEGYIQCSQFLYGVQEKLGVMNKGVAYALWDYEAQNSDELSFHEGDALTILRRKDESETEWWWARLGDREGYVPKNLLGLYPRIKPRQRTLA
B2: ASPP2: full length 1128 amino acid protein, SEQ ID NO: 4 (protein, listed as Homo sapiens)
chain: MMPMFLTVYLSNNEQHFTEVPVTPETICRDVVDLCKEPGESDCHLAEVWCGSERPVADNERMFDVLQRFGSQRNEVRFFLRHERPPGRDIVSGPRSQDPSLKRNGVKVPGEYRRKENGVNSPRMDLTLAELQEMASRQQQQIEAQQQLLATKEQRLKFLKQQDQRQQQQVAEQEKLKRLKEIAENQEAKLKKVRALKGHVEQKRLSNGKLVEEIEQMNNLFQQKQRELVLAVSKVEELTRQLEMLKNGRIDSHHDNQSAVAELDRLYKELQLRNKLNQEQNAKLQQQRECLNKRNSEVAVMDKRVNELRDRLWKKKAALQQKENLPVSSDGNLPQQAASAPSRVAAVGPYIQSSTMPRMPSRPELLVKPALPDGSLVIQASEGPMKIQTLPNMRSGAASQTKGSKIHPVGPDWSPSNADLFPSQGSASVPQSTGNALDQVDDGEVPLREKEKKVRPFSMFDAVDQSNAPPSFGTLRKNQSSEDILRDAQVANKNVAKVPPPVPTKPKQINLPYFGQTNQPPSDIKPDGSSQQLSTVVPSMGTKPKPAGQQPRVLLSPSIPSVGQDQTLSPGSKQESPPAAAVRPFTPQPSKDTLLPPFRKPQTVAASSIYSMYTQQQAPGKNFQQAVQSALTKTHTRGPHFSSVYGKPVIAAAQNQQQHPENIYSNSQGKPGSPEPETEPVSSVQENHENERIPRPLSPTKLLPFLSNPYRNQSDADLEALRKKLSNAPRPLKKRSSITEPEGPNGPNIQKLLYQRTTIAAMETISVPSYPSKSASVTASSESPVEIQNPYLHVEPEKEVVSLVPESLSPEDVGNASTENSDMPAPSPGLDYEPEGVPDNSPNLQNNPEEPNPEAPHVLDVYLEEYPPYPPPPYPSGEPEGPGEDSVSMRPPEITGQVSLPPGKRTNLRKTGSERIAHGMRVKFNPLALLLDSSLEGEFDLVQRIIYEVDDPSLPNDEGITALHNAVCAGHTEIVKFLVQFGVNVNAADSDGWTPLHCAASCNNVQVCKFLVESGAAVFAMTYSDMQTAADKCEEMEEGYTQCSQFLYGVQEKMGIMNKGVIYALWDYEPQNDDELPMKEGDCMTIIHREDEDEIEWWWARLNDKEGYVPRNLLGLYPRIKPRQRSLA

Assays:
p63γ [1] = biological target: T1, p63γ; assay: Transient luciferase reporter assay of p63γ transactivation function; format: cell-based; conditions: FIG. 14C
Procedure: (§1) To determine the amount of protein expression, Saos-2 cells (5×10^5) were plated 24 hours prior to transfection in 6 cm dishes. […] To determine the amount of gene activation, after transfection, the cells were lysed in Reporter Lysis Buffer 16-24 hours post-wash and assayed using the Luciferase Assay kit (Promega, Wis.). The fold activation of a particular reporter was determined by the activity of the transfected plasmid above the activity of vector alone.
(§2) The expression level of transfected proteins was detected using 40 μg of the respective lysates using the antibodies V5, DX.5410, DO1, 4A4 and p73. […] Results were derived from at least three independent experiments.

p73α = biological target: T2, p73α; assay: Transient luciferase reporter assay of p73α transactivation function; format: cell-based; conditions: for stimulation of the transactivation function of p73α on the Bax promoter: Example 16, FIGS. 14A and 14B; for transactivation function of p73α on the mdm2 promoter: FIG. 14C
Procedure: as §1, §2

U2OS and MCF7 cells = assay: Apoptosis by FACS in U2OS and MCF7 cells expressing wild-type p53, with or without cisplatin; format: cell-based, human; conditions: no cisplatin
Procedure: The transfected cells were gated, and the apoptotic cells identified by FACS as described in Example 6.
Before exposure to cisplatin (5 and 3 μg/ml respectively), U2OS and MCF7 cells were transfected with plasmids encoding HPV16 E6, iASPP, or 53BP2. Thirty hours later, cells were harvested and analysed as above.
Fragments from the 5′ ends of ASPP1, ASPP2 and iASPP cDNA were cloned into a mammalian expression vector in an antisense orientation and their ability to inhibit the protein synthesis determined in vitro. The antisense nucleic acid molecules were amplified by PCR on the respective plasmid clones using primers spanning the following nucleotide regions (relative to the initial ATG): −74 to 923; −253 to 839 and −37 to 536 for ASPP1, ASPP2 and iASPP respectively. The amplified segments were purified with the QIAquick PCR purification kit (QIAGEN) and ligated in the pcDNA3.1/V5-His TOPO vector (Invitrogen) according to the manufacturer's instructions.
U2OS and MCF-7 cells were transfected with the various expression plasmids prior to the treatment with cisplatin and analyzed using FACS as described above.
To determine the anti-apoptotic role of iASPP, both U2OS and MCF-7 cells were transfected with antisense iASPP and cells analyzed as described above. […] A small increase in apoptotic cells was consistently detected (FIG. 7D).

p63γ [2] = biological target: T1, p63γ; assay: Co-immunoprecipitation with p63γ (in vitro translated; transfected H1299 and Saos-2 cells); format: binding; conditions: for interaction with p63γ in vitro: in vitro translated proteins, FIGS. 12B and 12C; for interaction with p63γ in vivo: transfected cells, FIGS. 13A and 13C
Procedure: V5-tagged ASPP1 and ASPP2 proteins were in vitro translated with cold methionine using the TNT T7 Quick coupled Transcription/Translation System (Promega). Cell lysates were incubated at 30° C. for 1 hour and then immunoprecipitated with anti-V5 antibody on protein G agarose beads.
The agarose beads were added to the binding reactions and incubated on a rotating wheel at 4° C. for 16 hours. The beads were then washed with PBS. The bound proteins were released in SDS gel sample buffer and analysed by 10% SDS-polyacrylamide gel electrophoresis (PAGE). The gels were wet transferred on to Protran nitrocellulose membrane and the resulting blots were first incubated with primary antibody and subsequently with the appropriate secondary HRP conjugated antibody (Dako). The blot was exposed to hyperfilm following the use of ECL substrate solution (Amersham Life Science).
Cells were transfected with 1 μg of p63γ or p73α in the presence or absence of 10 μg of ASPP1 or ASPP2. Cell lysate (1 mg) was immunoprecipitated with an antiASPP1 or ASPP2 antibody (see Example 2 and 7). The immunoprecipitates were separated on an SDS gel and the presence of p63 or p73 on the immunoblots detected by mouse monoclonal antibodies 4A4 (Santa Cruz) and ER-15 (Neomarker) to p63 or p73, respectively. The presence of ASPP1 or ASPP2 was detected with antibodies YX.7 and DX5410, respectively.
In some methods, larger amounts of cell lysate (2 mg) were immunoprecipitated with rabbit antibodies ASPP1.88 or BP77 to ASPP1 and ASPP2, respectively. The expression of ASPP1, ASPP2, p63γ and p73α was detected as described above.

p53 = biological target: T3, p53 (Homo sapiens, UniProt P04637); assay: Co-immunoprecipitation with p53 in transfected Saos-2 cells; format: binding
T3 construct: expressed in transfected cells
Procedure: The cells were lysed in NP40 lysis buffer and 1000 μg of lysate immunoprecipitated with antibodies to iASPP bound to Protein G beads.

T3 sequence (P04637 whole entry): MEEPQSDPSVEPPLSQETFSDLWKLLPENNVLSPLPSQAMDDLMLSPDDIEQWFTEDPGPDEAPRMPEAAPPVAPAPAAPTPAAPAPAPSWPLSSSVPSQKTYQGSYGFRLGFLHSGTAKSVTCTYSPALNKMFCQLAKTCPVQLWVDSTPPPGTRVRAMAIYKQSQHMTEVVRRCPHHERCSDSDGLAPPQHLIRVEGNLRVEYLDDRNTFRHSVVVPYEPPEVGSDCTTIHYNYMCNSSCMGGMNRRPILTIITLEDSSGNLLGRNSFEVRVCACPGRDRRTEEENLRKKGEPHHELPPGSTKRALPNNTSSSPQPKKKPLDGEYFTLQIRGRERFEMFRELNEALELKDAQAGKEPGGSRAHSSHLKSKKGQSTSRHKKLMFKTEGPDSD

Molecule | transactivation function of p63γ on the mdm2 promoter (p63γ [1]) | stimulation of the transactivation function of p73α on the Bax promoter (p73α) | transactivation function of p73α on the mdm2 promoter (p73α) | apoptosis on expression in cells with endogenous wild-type p53 (U2OS and MCF7 cells) | interaction with p63γ in vitro (p63γ [2]) | interaction with p63γ in vivo (p63γ [2]) | interaction with p53 by immunoprecipitation and western blot (p53)
B1 | failed to stimulate | 3 fold | failed to stimulate | induced apoptosis | co-immunoprecipitated | co-immunoprecipitated transfected p63γ and p73α | –
B2 | failed to stimulate | 6 fold | failed to stimulate | induced apoptosis | co-immunoprecipitated | co-immunoprecipitated transfected p63γ and p73α | interact in vivo

From patent US20040228866A1, “Suppressor genes” (Ludwig Institute for Cancer Research, priority 2000, published 2004)
